Experimental data reported in the supplement of paper PMC7877785.
± gives the uncertainty stated by the source.

Experiment: self-splicing fitness, log relative to wild type (ln ratio); higher = more splicing; Tetrahymena group I intron in knt gene, E. coli kanamycin selection, DiMSum; sequences stand for … in CUCUCU…GGAGGGAAAAGUUAUCAGGCAUGCACCUGGUAGCUAGUCUUUAAACCAAUAGAUUGCAUCGGUUUAAAAGGCAAGACCGUCAAAUUGCGGGAAAGGGGUCAACAGCCGUUCAGUACCAAGUCUCAGGGGAAACUUUGAGAUGGCCUUGCAAAGGGUAUGGUAAUAAGCUGACGGACAUGGUCCUAACCACGCAGCCAAGUCCUAAGUCAACAGAUCUUCUGUUGAUAUGGAUGCAGUUCACAGACUAAAUGUCGGUCGGGGAAGAUGUAUUCUUCUCAUAAGAUAUAGUCGGACCUCUCCUUAAUGGGAGCUAGCGGAUGAAGUGAUGCAACACUGGAGCCGCUGGGAACUAAUUUGUAUGCGAAAGUAUAUUGAUUAGUUUUGGAGUACUCGUGGUCG
Method in brief: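 Library with all eight P1ex-region intron nucleotides randomised, intron inside the knt kanamycin-resistance gene on pET-22b(+), in E. coli BL21(DE3). Cells grew overnight at 37°C or 30°C on LB agar with or without 25 μg/mL kanamycin (plus 100 μg/mL carbenicillin, 50 μM IPTG, 0.2% rhamnose), in six replicate transformations. Pooled colonies were amplicon-sequenced on Illumina HiSeq 2500. DiMSum fitness is the error-weighted combination of wild-type-normalised replicate fold changes, kanamycin versus none.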

Sequence | self-splicing fitness (ln) (30 °C) | self-splicing fitness (ln) (37 °C)
GUAUAGCAAUAUUACGAUUG | -3.48 ± 0.42 | -1.67 ± 0.3
UCCAAGCAAUAUUACGGCUU | -3.94 ± 0.4 | -1.53 ± 0.25
AGCCAGCAAUAUUACGUAGC | -3.01 ± 0.14 | -2.05 ± 0.15
CAGGAGCAAUAUUACGCGAU | -3.06 ± 0.28 | 
GUAAAGCAAUAUUACGAGCU | -1.4 ± 0.13 | -0.306 ± 0.18
GUUUAGCAAUAUUACGACGA | -0.271 ± 0.17 | -0.957 ± 0.24
AGUCAGCAAUAUUACGCUCA | -0.675 ± 0.095 | -0.791 ± 0.12
CUUUAGCAAUAUUACGACUU |  | -3.6 ± 0.46
CUAAAGCAAUAUUACGCAUU | -4.21 ± 0.21 | -1.51 ± 0.14
CUUCAGCAAUAUUACGUUUC | -2.93 ± 0.17 | -2.17 ± 0.2
CCGGAGCAAUAUUACGCGUG | -1.09 ± 0.14 | -0.996 ± 0.16
UUCCAGCAAUAUUACGUUAA | -1.16 ± 0.079 | 0.606 ± 0.093
UGACAGCAAUAUUACGGUAU | -3.58 ± 0.2 | -2.45 ± 0.21
UGCGAGCAAUAUUACGGCCA | -0.517 ± 0.13 | 0.5 ± 0.15
CAAGAGCAAUAUUACGGGUG | -1.74 ± 0.078 | -1.17 ± 0.1
CUUAAGCAAUAUUACGGGCU | -3.84 ± 0.23 | -2.98 ± 0.25
AGCCAGCAAUAUUACGCUCC | -2.35 ± 0.16 | -2.51 ± 0.21
GUGUAGCAAUAUUACGAAAG | -2.33 ± 0.24 | -1.4 ± 0.42
UAGUAGCAAUAUUACGUGAA | -3.8 ± 0.35 | -1.07 ± 0.18
CUAUAGCAAUAUUACGGCUC | -3.46 ± 0.36 | -2.47 ± 0.48
GAGAAGCAAUAUUACGUUAC | -3.39 ± 0.27 | -3.05 ± 0.35
CGUAAGCAAUAUUACGCCAA | -3.24 ± 0.33 | -1.91 ± 0.4
AAUGAGCAAUAUUACGCCAG | -3.99 ± 0.3 | -2.87 ± 0.47
AAGAAGCAAUAUUACGAGGA | -3.43 ± 0.28 | -2.98 ± 0.3
UUGGAGCAAUAUUACGAUAG | -2.56 ± 0.37 | 

Sequence | self-splicing fitness (ln) (30 °C) | self-splicing fitness (ln) (37 °C)
CUCAAGCAAUAUUACGACCA |  | -0.985 ± 0.26
GCGGAGCAAUAUUACGGUCA | -2.75 ± 0.17 | -1.04 ± 0.13
UGGCAGCAAUAUUACGAGCU | -1.98 ± 0.16 | -1.91 ± 0.19
AUUGAGCAAUAUUACGCAAU | -3.28 ± 0.26 | -2.07 ± 0.21
UGAGAGCAAUAUUACGCUGC | -2.67 ± 0.42 | 
CUAUAGCAAUAUUACGGCAA | -3.31 ± 0.29 | -2.63 ± 0.45
GACGAGCAAUAUUACGUCGU | -3.59 ± 0.24 | -2.34 ± 0.23
AAUUAGCAAUAUUACGAGGG | -3.23 ± 0.23 | -2.93 ± 0.3
ACGAAGCAAUAUUACGGUCA | -1.35 ± 0.14 | -0.053 ± 0.13
GUGCAGCAAUAUUACGGACU | -1.28 ± 0.11 | -0.884 ± 0.14
GCGAAGCAAUAUUACGGGUU | -2.88 ± 0.1 | -1.65 ± 0.099
UGAUAGCAAUAUUACGGAUA | -3.57 ± 0.25 | -1.6 ± 0.19
CCUUAGCAAUAUUACGGGGU | -4.43 ± 0.28 | -2.08 ± 0.19
UGAAAGCAAUAUUACGUGUG | -1.67 ± 0.077 | -0.52 ± 0.081
GGCUAGCAAUAUUACGAGUG | -0.589 ± 0.084 | 0.347 ± 0.12
CACGAGCAAUAUUACGAAUU | -4.81 ± 0.41 | -2.25 ± 0.21
GCCGAGCAAUAUUACGCAAC | -3.15 ± 0.29 | -2.07 ± 0.26
GCCGAGCAAUAUUACGCAUG | -3.99 ± 0.3 | -2.4 ± 0.22
GAGGAGCAAUAUUACGGCUA | -1.75 ± 0.12 | -1.37 ± 0.11
AACUAGCAAUAUUACGUCUG | -1.86 ± 0.088 | -1.37 ± 0.088
GAUGAGCAAUAUUACGCCUC | -2.56 ± 0.36 | -1.01 ± 0.38
GCCGAGCAAUAUUACGGGGG | -3.61 ± 0.19 | -3.02 ± 0.31
UGACAGCAAUAUUACGCAAG | -3.51 ± 0.27 | -2.73 ± 0.21
UAUAAGCAAUAUUACGCAGC | -2.5 ± 0.23 | -2.43 ± 0.3
